# Data reported in patent publication US20140057807A1.
# Positions count from the first letter of the chain named.
# B1: ySMB-1 (designed binder)
# chain: VSSVPTKLEVVAATPTSLLISWDASSSSVSYYRITYGETGGNSPVQEFTVPGSSSTATISGLSPGVDYTITVYAYYSYYDLYYSYSPSSINYRT
# B2: SEQ ID NO 87 (designed binder)
# chain: B1 chain with Y31H, R33H, Y75F, Y78D, Y79D, Y83F, S84A, Y85F
# B3: SEQ ID NO 90 (designed binder)
# chain: B1 chain with Y31H, R33E, Y78H, Y79E, L81I, Y82F, S84A, Y85V
# B4: SEQ ID NO 91 (designed binder)
# chain: B1 chain with Y31H, R33E, Y73A, Y76H, Y79H, L81I, Y82F, S84A, Y85V
# B5: SEQ ID NO 88 (designed binder)
# chain: B1 chain with Y31H, R33G, Y76H, Y79D, L81I, S84A, Y85L
# B6: SEQ ID NO 96 (designed binder)
# chain: B1 chain with Y31H, R33D, Y73H, Y79D, L81I, Y83V, S84A, Y85I
# B7: SEQ ID NO 94 (designed binder)
# chain: B1 chain with Y31H, R33A, Y79D, Y83V, Y85D
# B8: SEQ ID NO 93 (designed binder)
# chain: B1 chain with R33E, Y73I, Y75F, Y78H, Y79D, L81I, Y83I, Y85D
# B9: SEQ ID NO 92 (designed binder)
# chain: B1 chain with Y31H, R33E, Y73T, Y76D, L81I, Y83I, S84A
# B10: SEQ ID NO 89 (designed binder)
# chain: B1 chain with Y31H, R33A, Y76H, Y79D, L81I, Y82F, Y83L, S84A, Y85D
# B11: SEQ ID NO 95 (designed binder)
# chain: B1 chain with Y31H, R33A, Y73F, Y79D, L81I, S84A
# B12: hS1MB-3 (designed binder)
# chain: B1 chain with Y31H, R33A, Y76H, Y79D, L81I, Y82F, Y83L, S84A, Y85D
# B13: hS1MB-7 (designed binder)
# chain: B1 chain with R33E, Y73I, Y75F, Y78H, Y79D, L81I, Y83I, Y85D
# B14: hS1MB-19 (designed binder)
# chain: B1 chain with Y31H, R33G, Y79D, L81I, Y82F, Y83V, S84A, Y85V
# B15: hS1MB-12 (designed binder)
# chain: B1 chain with R33E, Y73F, Y76H, Y78D, Y79D, S84A, Y85F
# B16: hS1MB-15 (designed binder)
# chain: B1 chain with R33D, Y79D, L81I, Y83F, S84A, Y85D
# B17: hS1MB-13 (designed binder)
# chain: B1 chain with R33A, Y76H, Y79D, L81I, Y83F, S84A, Y85F
# B18: hS1MB-22 (designed binder)
# chain: B1 chain with Y31H, R33A, Y75F, L81I, Y82F, Y85D
# B19: hS1MB-21 (designed binder)
# chain: B1 chain with Y31H, R33G, Y79H, L81I, Y82F, S84A, Y85L
# B20: hS1MB-14 (designed binder)
# chain: B1 chain with Y31H, R33H, Y79N, L81I, Y82F, Y83F, S84A, Y85D
# B21: hS1MB-17 (designed binder)
# chain: B1 chain with R33E, Y73S, Y76N, Y79D, L81I, S84A, Y85V
# B22: hS1MB-20 (designed binder)
# chain: B1 chain with Y31H, R33S, Y76D, Y78I, Y79E, L81I, Y83I, S84A, Y85D
# B23: hS1MB-16 (designed binder)
# chain: B1 chain with Y31H, R33D, Y76N, Y78H, Y79D, L81I, Y82F, Y83I, S84A
# B24: hS1MB-18 (designed binder)
# chain: B1 chain with R33E, Y73F, Y76D, Y78V, Y79E, L81I, Y83V
# B25: hS1MB-23 (designed binder)
# chain: B1 chain with Y31H, R33E, Y78H, Y79D, L81I, Y82F, S84A, Y85F
# B26: hS1MB-11 (designed binder)
# chain: B1 chain with Y31N, R33A, Y79D, L81I, Y82F, Y83V, S84A, Y85D
# Biological target: human small ubiquitin-like modifier 1 (human) (UniProt P63165)
# Assay: SPR
Kd [µM],fold discrimination in affinity (ySUMO over hSUMOs) [fold],Binder
54,> 600,B1

# Biological target: human small ubiquitin-like modifier 1 (human) (UniProt P63165)
# Assay: SPR (monobody on the chip via His-tag, target flowed); estimated Kd [Continued]
row,Kd [nM],Binder
1,652,B2
2,145,B3
3,284,B4
4,290,B5
5,2200,B6
6,3600,B7
7,2500,B8
8,2800,B9
9,519,B10
10,738,B11

# Biological target: human small ubiquitin-like modifier 1 (human) (UniProt P63165)
# Assay: SPR (Biacore 2000), monobody immobilised via His-tag on NTA surface, hSUMO1 flowed over it
row,Kd [nM],Binder
1,519,B12
2,2500,B13

# Biological target: human small ubiquitin-like modifier 1 (human) (UniProt P63165)
# Assay: ratio of the apparent affinity for hSUMO1 to that for ySUMO in the titration phage ELISA of FIGS. 25A and 26A; group Low Specificity (0-10)
row,Specificity Factor,Binder
1,8,B14
2,4.4,B15
3,2.9,B16
4,1.4,B17
5,0.6,B18
6,0.7,B19
7,2.6,B20

# Biological target: human small ubiquitin-like modifier 1 (human) (UniProt P63165)
# Assay: ratio of the apparent affinity for hSUMO1 to that for ySUMO in the titration phage ELISA of FIGS. 25A and 26A; group High Specificity (>100)
row,Specificity Factor,Binder
1,> 100,B21
2,> 100,B13
3,> 100,B22
4,> 100,B23
5,> 100,B24

# Biological target: human small ubiquitin-like modifier 1 (human) (UniProt P63165)
# Assay: ratio of the apparent affinity for hSUMO1 to that for ySUMO in the titration phage ELISA of FIGS. 25A and 26A; group Moderate Specificity (10-100)
row,Specificity Factor,Binder
1,52.5,B25
2,12.3,B12
3,13.1,B26
